In patent US7070972 (US Dept. of Health and Human Services, dated 2006):

T1: common γ chain of the IL-2 receptor, wild type (UniProt P31785 23-369, limits assumed)
T1 construct: whole, on cells; Tested in cell lysates; also called wild type γc
T1 sequence (looked up): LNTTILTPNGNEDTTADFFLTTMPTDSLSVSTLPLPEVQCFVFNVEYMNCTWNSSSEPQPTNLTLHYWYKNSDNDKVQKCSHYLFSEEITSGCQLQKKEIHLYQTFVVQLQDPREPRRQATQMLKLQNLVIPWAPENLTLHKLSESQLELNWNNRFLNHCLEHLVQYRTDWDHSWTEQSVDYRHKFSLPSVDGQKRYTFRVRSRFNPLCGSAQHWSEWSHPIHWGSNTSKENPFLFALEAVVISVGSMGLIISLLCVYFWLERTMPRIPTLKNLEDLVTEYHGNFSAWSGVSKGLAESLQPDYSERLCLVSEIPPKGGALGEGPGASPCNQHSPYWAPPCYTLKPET


Experiments:
JAK-1 = target: T2, JAK-1 (UniProt P23458 1-1154, limits assumed); experiment: anti-Tac immunoprecipitation, JAK-1 Western blot, COS-7 cotransfectants
T2 construct: whole, on cells; Tested in cell lysates
T2 sequence (P23458 whole entry): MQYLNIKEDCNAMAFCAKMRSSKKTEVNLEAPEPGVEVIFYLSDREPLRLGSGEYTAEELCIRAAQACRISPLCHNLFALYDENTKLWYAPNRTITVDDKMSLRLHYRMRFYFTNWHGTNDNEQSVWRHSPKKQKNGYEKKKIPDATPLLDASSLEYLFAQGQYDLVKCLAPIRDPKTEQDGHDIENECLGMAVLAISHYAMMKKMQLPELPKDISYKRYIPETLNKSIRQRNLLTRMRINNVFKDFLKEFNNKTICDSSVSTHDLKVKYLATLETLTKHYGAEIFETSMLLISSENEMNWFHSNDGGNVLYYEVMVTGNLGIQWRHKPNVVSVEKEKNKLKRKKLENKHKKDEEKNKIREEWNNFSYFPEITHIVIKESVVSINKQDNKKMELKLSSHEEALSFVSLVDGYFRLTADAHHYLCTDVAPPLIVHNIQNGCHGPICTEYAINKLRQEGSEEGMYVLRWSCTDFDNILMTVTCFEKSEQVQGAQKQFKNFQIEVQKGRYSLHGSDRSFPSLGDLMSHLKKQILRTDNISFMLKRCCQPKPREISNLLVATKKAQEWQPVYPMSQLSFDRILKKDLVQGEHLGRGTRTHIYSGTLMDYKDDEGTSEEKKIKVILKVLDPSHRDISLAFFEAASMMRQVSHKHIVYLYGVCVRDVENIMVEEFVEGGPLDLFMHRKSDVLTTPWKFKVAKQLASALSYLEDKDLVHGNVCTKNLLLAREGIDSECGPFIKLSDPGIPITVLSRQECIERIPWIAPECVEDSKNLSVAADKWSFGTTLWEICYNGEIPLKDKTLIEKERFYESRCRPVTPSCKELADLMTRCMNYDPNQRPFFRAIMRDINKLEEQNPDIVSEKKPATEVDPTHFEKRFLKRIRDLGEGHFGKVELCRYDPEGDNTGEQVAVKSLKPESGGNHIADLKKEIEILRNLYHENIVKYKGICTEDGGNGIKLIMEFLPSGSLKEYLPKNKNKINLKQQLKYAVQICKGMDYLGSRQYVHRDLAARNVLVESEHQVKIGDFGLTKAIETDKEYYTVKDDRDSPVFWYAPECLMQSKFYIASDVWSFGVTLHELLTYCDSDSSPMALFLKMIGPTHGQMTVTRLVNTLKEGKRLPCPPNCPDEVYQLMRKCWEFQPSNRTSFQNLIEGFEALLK

[1] = target: T1, common γ chain of the IL-2 receptor, …; experiment: co-immunoprecipitation from YT cell lysates with R878, JAK-3 Western blot

Row | binding result (JAK-1) | binding result [1] | Binder
1 | no binding | – | chimeric α/γ/γ receptor chain (receptor, UniProt P01589 22-240, looked up) ELCDDDPPEIPHATFKAMAYKEGTMLNCECKRGFRRIKSGSLYMLCTGNSSHSSWDNQCQCTSSATRNTTKQVTPQPEEQKERKTTEMQSPMQPVDQASLPGHCREPPPWENEATERIYHFVVGQMVYYQCVQGYRALHRGPAESVCKMTHGKTRWTQPQLICTGEMETSQFPGEEKPQASPEGRPESETSCLVTTTDFQIQTEMAATMETSIFTTEYQVVISVGSMGLIISLLCVYFWLERTMPRIPTLKNLEDLVTEYHGNFSAWSGVSKGLAESLQPDYSERLCLVSEIPPKGGALGEGPGASPCNQHSPYWAPPCYTLKPET
2 | – | binds | JAK-3 protein (enzyme, Intracellular kinase of 1124 residues; Tested as the endogenous protein in lysates of HUT-78, YT, NK and NK3.3 cells, or as recombinant protein in lysates of transfected COS-7 cells; also called L-JAK; human JAK-3) MAPPSEETPLIPQRSCSLLSTEAGALHVLLPARAPGPPQRLSFSFGDHLAEDLCVQAAKASGILPVYHSLFALATEDLSCWFPPSHIFSVEDASTQVLLYRIRFYFPNWFGLEKCHRFGLRKDLASAILDLPVLEHLFAQHRSDLVSGRLPVGLSLKEQGECLSLAVLDLARMAREQAQRPGELLKTVSYKACLPPSLRDLIQGLSFVTRRAIRRTVRRALPRVAACQADRHSLMAKYIMDLERLDPAGAAETFHVGLPGALGGHDGLGLLRVAGDGGIAWTQGEQEVLQPFCDFPEIVDISIKQAPRVGPAGEHRLVTVTRTDNQILEAEFPGLPEALSFVALVDGYFRLTTDSQHFFCKEVAPPRLLEEVAEQCHGPITLDFAINKLKTGGSRPGSYVLRRSPQDFDSFLLTVCVQNPLGPDYKGCLIRRSPTGTFLLVGLSRPHSSLRELLATCWDGGLHVDGVAVTLTSCCIPRPKEKSNLIVVQRGHSPPTSSLVQPQSQYQLSQMTFHKIPADSLEWHENLGHGSFTKIYRGCRHEVVDGEARKTEVLLKVMDAKHKNCMESFLEAASLMSQVSYRHLVLLHGVCMAGDSTMVQEFVHLGAIDMYLRKRGHLVPASWKLQVVKQLAYALNYLEDKGLPHGNVSARKVLLAREGADGSPPFIKLSDPGVSPAVLSLEMLTDRIPWVAPECLREAQTLSLEADKWGFGATVWEVFSGVTMPISALDPAKKLQFYEDRQQLPAPKWTELALLIQQCMAYEPVQRPSFRAVIRDLNSLISSDYELLSDPTPGALAPRDGLWNGAQLYACQDPTIFEERHLKYISQLGKGNFGSVELCRYDPLAHNTGALVAVKQLQHSGPDQQRDFQREIQILKALHSDFIVKYRGVSYGPGRPELRLVMEYLPSGCLRDFLQRHRARLDASRLLLYSSQICKGMEYLGSRRCVHRDLAARNILVESEAHVKIADFGLAKLLPLDKDYYVVREPGQSPIFWYAPESLSDNIFSRQSDVWSFGVVLYELFTYCDKSCSPSAEFLRMMGCERDVPALCRLLELLEEGQRLPAPPACPAEVHELMKLCWAPSPQDRPSFSALGPQLDMLWSGSRGCETHAFTAHPEGKHHSLSFS
